Source: paper PMC8547449 (2021)

Molecular target: T1, C4b-binding protein (human, UniProt P04003 49-597; P20851 18-252)
T1 chain 1: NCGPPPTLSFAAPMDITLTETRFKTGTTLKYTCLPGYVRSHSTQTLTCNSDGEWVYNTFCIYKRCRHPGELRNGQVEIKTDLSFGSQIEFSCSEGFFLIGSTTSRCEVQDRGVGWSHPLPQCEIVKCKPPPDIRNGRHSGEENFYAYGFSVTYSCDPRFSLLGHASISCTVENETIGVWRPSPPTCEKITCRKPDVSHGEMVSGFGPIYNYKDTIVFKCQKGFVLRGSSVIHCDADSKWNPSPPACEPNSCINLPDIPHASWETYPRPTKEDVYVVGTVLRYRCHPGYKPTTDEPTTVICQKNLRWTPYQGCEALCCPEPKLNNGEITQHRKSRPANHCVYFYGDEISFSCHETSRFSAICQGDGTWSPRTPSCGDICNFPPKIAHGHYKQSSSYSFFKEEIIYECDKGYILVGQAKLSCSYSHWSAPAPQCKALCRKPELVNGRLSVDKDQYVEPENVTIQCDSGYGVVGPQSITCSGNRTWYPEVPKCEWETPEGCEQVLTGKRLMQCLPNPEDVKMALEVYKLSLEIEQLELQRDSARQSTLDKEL
T1 chain 2: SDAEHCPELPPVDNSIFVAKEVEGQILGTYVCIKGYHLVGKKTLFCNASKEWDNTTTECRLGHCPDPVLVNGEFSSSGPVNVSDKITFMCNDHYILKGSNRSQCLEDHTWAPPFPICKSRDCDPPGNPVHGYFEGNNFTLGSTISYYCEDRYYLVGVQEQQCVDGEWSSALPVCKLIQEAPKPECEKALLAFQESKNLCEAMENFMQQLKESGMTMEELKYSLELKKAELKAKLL
Assay: SPR

B1: M28 protein, recombinant, affinity tag removed by TEV protease (natural protein)
chain: AESPKSTETSANGADKLADAYNTLLTEHEKLRDEYYTLIDAKEEEPRYKALRGENQDLREKEGKYQDKIKKLEEKEKNLEKKSEDVERHYLKKLDQEHKEQEERQKNLEELERQSQREIDKRYQEQLQKQQQLETEKQISEASRKSLSRDLEASRAAKKDLEAEHQKLKEEKQISDASRQGLSRDLEASRAAKKDLEAEHQKLKEEKQISDASRQGLSRDLEASREAKKKVEADLAEANSKLQALEKLNKELEEGKKLSEKEKAELQARLEAEAKALKEQLAKQAEELAKLKGNQTPNAKVAPQANRSRSAMTQQKR
B1 showed a Kd of 0.188 nM.
